Biological target: SOX (alkaline exonuclease) (Kaposi's sarcoma-associated herpesvirus …, UniProt P88925 1-486)
Assay: fluorescence polarization anisotropy; FPA with 3'FAM oligonucleotides, single site binding fit (GraphPad PRISM6); buffer, pH and temperature as in cited Bagneris et al., not in material
Details: protein: recombinant

B1: HBB58 (structured_RNA)
RNA: AGGUGAAGGCUCAUGGCAAGAAAGUGCUCGGUGCCUUUAGUGAUGGCCUGGCUCACCU
Kd (label: 3'FAM, bulge): 42 µM

B2: GFP51 (structured_RNA)
RNA: UACGGCAAGCUGACCCUGAAGUUCAUCUGCACCACCGGCAAGCUGCCCGUG
Kd (label: 3'FAM, stem loop with UGAAG motif): 5 µM

GAUCUGAGCCAUUGAAGCAAGCUUCCAGAUC (structured_RNA) [K2-31]
Kd (label: 3'FAM, hairpin): 49 µM

B3: dsUN51 (dsRNA)
RNA 1: GGCCAUCCUGUUUUUUUCCCUUUUUUUUUUUCUUUUUUUUUUUUUUUUUUU
RNA 2: AAAAAAAAAAAAAAAAAAAAAAGAAAAAAAAAAAGGGAAAAAAACUGGAUGGCC
Kd (label: 3'FAM (strand 1), duplex, as printed has one U-U mismatch and second strand about 3 nt longer (5' overhang)): ~73 µM

— publication PMC5416870, “Lee Hyunah 1 2”
